Measured values taken from publication PMC12756313.

Molecular target: Protein A (coating of 10 μm silica microparticles) (UniProt P38507)
Experiment: flow cytometry of beads; protein A coated on 10 μm silica particles, incubated with PE Mouse Anti-Human CD9 for 1 h, washed twice by centrifugation (200× g, 1 min); FACS Canto II, PE excitation 488 nm, filter 585/42; unlabeled proteinA-Silica particles used to set the gate

BD PE Mouse Anti-Human CD9 (Catalogue #341647, BD Biosciences) (antibody)
percent of beads positive for PE: 93%
